Experimental data taken from the MegaScale stability set (Tsuboyama et al. 2023).

B1: 5KPH (parent)
chain: EEKRQVKQVAKEKLLEQSPNSKVQVRRVQKQGNTIRVELELRTNGKKENYTVEVERQGNTWTVKRITRT

Variants of: B1
Experiment: folding stability dG (cDNA display proteolysis); higher = more stable
Details: PBS, room temperature

| Variant | folding stability dG |
| --- | --- |
| EEKRQVKQVAKEKLLEQSPNSKVQVRWVQKQGNTIRVELELRTNGKKENYTVEVERQGNTWTVKRITRT [R27W] | 4.14 kcal/mol |
| EEKRQVKQVAKEKLLEQSPNSKVQVRVVQKQGNTIRVELELRTNGKKENYTVEVERQGNTWTVKRITRT [R27V] | 3.12 kcal/mol |
| EEKRQVKIVAKEKLLEQSPNSKVQVRRVQKQGNTIRVELELRTNGKKENYTVEVERQGNTWTVKRITRT [Q8I] | 3.76 kcal/mol |
| EEKRQVKQVAKEKLLEQSPNSKVQVRRVQKQGNTIRVELELRTNGKKENATVEVERQGNTWTVKRITRT [Y50A] | 2.98 kcal/mol |
| EEKRQVKQVAKEKLLEQSPNSKVQVRRVQKQGNTIRVELELRTNGKKENITVEVERQGNTWTVKRITRT [Y50I] | 3.17 kcal/mol |
| EEKRQVKQVAKEKLLEQSPNSKVQVYRVQKQGNTIRVELELRTNGKKENYTVEVERQGNTWTVKRITRT [R26Y] | 3.53 kcal/mol |
| EEKRQVKQVAKEKLLEQSPNSKVQVRRVQKQGNTIRVELELRTNGKKENYTVEVEPQGNTWTVKRITRT [R56P] | 2.93 kcal/mol |
| EEKRQVKQVAKEKLLEQSPNSKVQVRRVQKQGNTIRVELELRTNGKKENYTVEVEFQGNTWTVKRITRT [R56F] | 3.83 kcal/mol |
| EEKRQVKQVAKEKLLEQSPNSKVQVRRVQKQGNTIRVELELRTNGKKENYTVEVEQQGNTWTVKRITRT [R56Q] | 3.51 kcal/mol |
| EEKRQVKQVAKEKLLEQSPNSKVQVRRVQKQGCTIRVELELRTNGKKENYTVEVERQGNTWTVKRITRT [N33C] | 3.22 kcal/mol |
| EEKRQVKQVAKEKLLEQSPNSKVQVRRVQKQGNTIRVELELRTNGKKENYTVEVERQGPTWTVKRITRT [N59P] | 3.84 kcal/mol |
| EEKRQVKQVAKEKLLEQSPNSKVQVRRVQKQGNTIRVELELRTNGKKENYTVEVERQGDTWTVKRITRT [N59D] | 4.01 kcal/mol |
| EEKRQVKQVAKEKLLEQSPNSKVQVRRVQKQGNTIRVELELRTNGKKENYTVEVERQINTWTVKRITRT [G58I] | 2.86 kcal/mol |
| EEKRQVKQVAKEKLLEQSPNSKVQVRRVQKQGNTIRVELELRTNGKKENYTVEVERQYNTWTVKRITRT [G58Y] | 3.15 kcal/mol |
| EEKRQVKQVAKEKLLEQSPNSKVQVRRVQKQGNTIRVLLELRTNGKKENYTVEVERQGNTWTVKRITRT [E38L] | 4.18 kcal/mol |
| EEKRQVKQVAFEKLLEQSPNSKVQVRRVQKQGNTIRVELELRTNGKKENYTVEVERQGNTWTVKRITRT [K11F] | 3.33 kcal/mol |
| EEKRQVKQVALEKLLEQSPNSKVQVRRVQKQGNTIRVELELRTNGKKENYTVEVERQGNTWTVKRITRT [K11L] | 3.99 kcal/mol |
| EEKRQVKQVACEKLLEQSPNSKVQVRRVQKQGNTIRVELELRTNGKKENYTVEVERQGNTWTVKRITRT [K11C] | 3.75 kcal/mol |
| EEKRQVKQVAKEKLLEQSPNSKVQVRRVQKQGNTIRVELELRTNGKKENYTVEFERQGNTWTVKRITRT [V54F] | 4.06 kcal/mol |
| EEKRQVKQVAKEKLLEQSPNSKVQVRRVQKQGNTIRVELELRTNGKKELYTVEVERQGNTWTVKRITRT [N49L] | 4.4 kcal/mol |
| EEKRQVKQVAKEKLLEQSPNSWVQVRRVQKQGNTIRVELELRTNGKKENYTVEVERQGNTWTVKRITRT [K22W] | 4.06 kcal/mol |
| EEKRQVKQVAKEKLLEQSPNSEVQVRRVQKQGNTIRVELELRTNGKKENYTVEVERQGNTWTVKRITRT [K22E] | 4.13 kcal/mol |
| EEKRQVKQVAKEKNLEQSPNSKVQVRRVQKQGNTIRVELELRTNGKKENYTVEVERQGNTWTVKRITRT [L14N] | 1.92 kcal/mol |
| EEKRQVKQVAKEKLLEQSPNSKVQVRRVQKQGNTIRVELELRTNGKKENYTVEVERQGNTWTVKRITAT [R68A] | 3.4 kcal/mol |
| EEKRQVKQVAKEKLLEQSPNSKVQVRRVQKQGNTIRVELELRTNGKKENYTVEVERQGNTWTVKRITST [R68S] | 3.21 kcal/mol |
| EEKRSVKQVAKEKLLEQSPNSKVQVRRVQKQGNTIRVELELRTNGKKENYTVEVERQGNTWTVKRITRT [Q5S] | 3.84 kcal/mol |

| Variant | folding stability dG |
| --- | --- |
| EEKRYVKQVAKEKLLEQSPNSKVQVRRVQKQGNTIRVELELRTNGKKENYTVEVERQGNTWTVKRITRT [Q5Y] | 3.64 kcal/mol |
| EEKRIVKQVAKEKLLEQSPNSKVQVRRVQKQGNTIRVELELRTNGKKENYTVEVERQGNTWTVKRITRT [Q5I] | 3.95 kcal/mol |
| EEKRQVKQGAKEKLLEQSPNSKVQVRRVQKQGNTIRVELELRTNGKKENYTVEVERQGNTWTVKRITRT [V9G] | 1.81 kcal/mol |
| EEKRQVKQVAKEKLLEQSPNSKVQVRRVQKQQNTIRVELELRTNGKKENYTVEVERQGNTWTVKRITRT [G32Q] | 3.04 kcal/mol |
| EEKRQVKQVAKEKLLEQSPNSKVQVRRVQKQANTIRVELELRTNGKKENYTVEVERQGNTWTVKRITRT [G32A] | 3.18 kcal/mol |
| EEKRQVKQVAKEKLLEQSPNSKVQVRRVQKQGNTIRVELELRTNGKKHNYTVEVERQGNTWTVKRITRT [E48H] | 3.34 kcal/mol |
| EEKRQVKQVAKEKLLEQSPNSKVQVRRVQKQGNTIRVELELRTNGKKENYTAEVERQGNTWTVKRITRT [V52A] | 3.31 kcal/mol |
| EEKRQVKQVAKEKLLEQSPNSKVQVRRVQKQGNTIRVELELRTNGKKENYVVEVERQGNTWTVKRITRT [T51V] | 4.22 kcal/mol |
| EEKRQVKQVAKEKLLEQSPNSKVQVRRVQKQGNTIRVELELRTNGKKENYTVEVNRQGNTWTVKRITRT [E55N] | 2.91 kcal/mol |
| TEKRQVKQVAKEKLLEQSPNSKVQVRRVQKQGNTIRVELELRTNGKKENYTVEVERQGNTWTVKRITRT [E1T] | 3.46 kcal/mol |
| EEKRQVKQVAKEKLLEQSPNSKVQVRRPQKQGNTIRVELELRTNGKKENYTVEVERQGNTWTVKRITRT [V28P] | 1.34 kcal/mol |
| EEKRQVKQVAKEKLLEQSPNSKVQVRRVQKQGNTIRVELELRTNGKKENYTVEVERQGNTWTPKRITRT [V63P] | 2.8 kcal/mol |
| EEKRQVKQVAKEYLLEQSPNSKVQVRRVQKQGNTIRVELELRTNGKKENYTVEVERQGNTWTVKRITRT [K13Y] | 4.07 kcal/mol |
| EEKRQVKQVAKEHLLEQSPNSKVQVRRVQKQGNTIRVELELRTNGKKENYTVEVERQGNTWTVKRITRT [K13H] | 3.57 kcal/mol |
| EEKRQVKQVAKEPLLEQSPNSKVQVRRVQKQGNTIRVELELRTNGKKENYTVEVERQGNTWTVKRITRT [K13P] | 2.43 kcal/mol |
| EEKRQVKQVAKEKLLEQSPNSKVQVRRVQKQGNTIRVELELCTNGKKENYTVEVERQGNTWTVKRITRT [R42C] | 3.54 kcal/mol |
| EEKRQVKQVAKEKLLEQSPNSKVQVRRVQKQGNTIRVELELSTNGKKENYTVEVERQGNTWTVKRITRT [R42S] | 3.91 kcal/mol |
| EEKRQVKQVAKEKLLEQGPNSKVQVRRVQKQGNTIRVELELRTNGKKENYTVEVERQGNTWTVKRITRT [S18G] | 2.56 kcal/mol |
| EEKRQVKQVAKEKLLEQCPNSKVQVRRVQKQGNTIRVELELRTNGKKENYTVEVERQGNTWTVKRITRT [S18C] | 3.86 kcal/mol |
| EEKRQVKQVAKEKLLEQWPNSKVQVRRVQKQGNTIRVELELRTNGKKENYTVEVERQGNTWTVKRITRT [S18W] | 4.39 kcal/mol |
| EEKRQVKQVAKEKLLEQSPNSKVQVRRVQKQGNLIRVELELRTNGKKENYTVEVERQGNTWTVKRITRT [T34L] | 3.96 kcal/mol |
| EEKRQVKQVAKEKLLEQSPNSKVQVRRVQKMGNTIRVELELRTNGKKENYTVEVERQGNTWTVKRITRT [Q31M] | 4.47 kcal/mol |
| EEKRQVKQVAKEKLLEQSPNSKVQVRRVQKQGNTIWVELELRTNGKKENYTVEVERQGNTWTVKRITRT [R36W] | 4.21 kcal/mol |
| EEKRQVKQVAKEKLLEQSPNSKVQVRRVQKQGNTISVELELRTNGKKENYTVEVERQGNTWTVKRITRT [R36S] | 3.85 kcal/mol |
| EEKRQVKQVAKEKLLEQSPNSKVQVRRVQKQGNTIRVELELRGNGKKENYTVEVERQGNTWTVKRITRT [T43G] | 3.6 kcal/mol |
| EEKRQVKQVAKEKLSEQSPNSKVQVRRVQKQGNTIRVELELRTNGKKENYTVEVERQGNTWTVKRITRT [L15S] | 2.83 kcal/mol |

| Variant | folding stability dG |
| --- | --- |
| EEKRQKKQVAKEKLLEQSPNSKVQVRRVQKQGNTIRVELELRTNGKKENYTVEVERQGNTWTVKRITRT [V6K] | 2.05 kcal/mol |
| EEKRQSKQVAKEKLLEQSPNSKVQVRRVQKQGNTIRVELELRTNGKKENYTVEVERQGNTWTVKRITRT [V6S] | 3.37 kcal/mol |
| EEKRQVKQVAKEKLLEQSPNSKVQTRRVQKQGNTIRVELELRTNGKKENYTVEVERQGNTWTVKRITRT [V25T] | 2.85 kcal/mol |
| EEKRQVKQVAKEKLLEQSPNSKVQVRRVQKQGNTIRVELELRTNGKKENYTVEVERQGNTLTVKRITRT [W61L] | 3.64 kcal/mol |
| EEKRQVKQVAKEKLLEQSPNSKVQVRRVQKQGNTIRVELELRTNGKKENYTVEVERQGNTTTVKRITRT [W61T] | 2.21 kcal/mol |
| EEHRQVKQVAKEKLLEQSPNSKVQVRRVQKQGNTIRVELELRTNGKKENYTVEVERQGNTWTVKRITRT [K3H] | 4.2 kcal/mol |
| EEKRQVKQVAKEKLLEQSPNSKVQVRRVQKQGNTIRVELELRTNGKKENYTVCVERQGNTWTVKRITRT [E53C] | 3.34 kcal/mol |
| EEKRQVKQVAKEKLLEQSPNSKVQVRRVQKQGNTIRVELELRTNVKKENYTVEVERQGNTWTVKRITRT [G45V] | 2.85 kcal/mol |
| EEKRQVKQVAKEKLLEQSPNSKVQVRRVQKQGNTIRVELELRTNPKKENYTVEVERQGNTWTVKRITRT [G45P] | 1.96 kcal/mol |
| EEKRQVKQVAKEKLLEQSPNSKVQVRRVQKQGNTIRVELELRTNEKKENYTVEVERQGNTWTVKRITRT [G45E] | 3.49 kcal/mol |
| EEKRQVKQVAKEKLLEQSPNSKVQVRRVQKQGNTIRVELELRTNGKKENYTVEVERQGNTWTVKRICRT [T67C] | 3.68 kcal/mol |
| EEKRQVKQVAKEKLLEQSPNSKVQVRRVQKQGNTIRVELELRTNGKKENYTVEVERQGNTWTVKRIART [T67A] | 3.46 kcal/mol |
| EEKRQVKQVAKEKLLEQSPNSKVQVRRVQKQGNTIRVELELRTNGKKENYTVEVERQGNTWTVKRIFRT [T67F] | 4.23 kcal/mol |
| EEKRQVKQVAKEKLLEQSPNSKVQVRRVQKQGNTIRVELELRTNGKKENYTVEVERQGNTWTVKEITRT [R65E] | 3.61 kcal/mol |
| EEKRQVKQVAKEKLLEQSPNSKVQVRRVQKQGNTIRVELELRTNGKKENYTVEVERQGNTWTVKKITRT [R65K] | 4.01 kcal/mol |
| EEKRQVKQVAKEKLLEQSPNSKVQVRRVQKQGNTIRVELELRTNGKKENYTVEVERQGNTWTVKIITRT [R65I] | 3.43 kcal/mol |
| EEKRQVKQVAKEKLLEQSPNSKVQVRRVQKQGNTIRVELELRTNGKKENYTVEVERQGNTWLVKRITRT [T62L] | 4.03 kcal/mol |
| EEKRQVKQVAKEKLLEQSPNSKVQVRRVQKQGNTIRVELELRTNGKKENYTVEVERQGNTWMVKRITRT [T62M] | 3.97 kcal/mol |
| EEKRQVKQVAKEKLLEQSPNSKVQVRRVQDQGNTIRVELELRTNGKKENYTVEVERQGNTWTVKRITRT [K30D] | 3.8 kcal/mol |
| EEKRQVKQVAKEKLLEQSPNSKVQVRRVQRQGNTIRVELELRTNGKKENYTVEVERQGNTWTVKRITRT [K30R] | 4 kcal/mol |
| EEKRQVKQVAKEKLLEQSPNRKVQVRRVQKQGNTIRVELELRTNGKKENYTVEVERQGNTWTVKRITRT [S21R] | 2.18 kcal/mol |
| EEKRQVKQVAKEKLLEQSPNQKVQVRRVQKQGNTIRVELELRTNGKKENYTVEVERQGNTWTVKRITRT [S21Q] | 2.31 kcal/mol |
| EEKRQVKQVAKEKLLEQSPNAKVQVRRVQKQGNTIRVELELRTNGKKENYTVEVERQGNTWTVKRITRT [S21A] | 3.98 kcal/mol |
| EEKRQVKQVAKEKLLEQSPNGKVQVRRVQKQGNTIRVELELRTNGKKENYTVEVERQGNTWTVKRITRT [S21G] | 4.01 kcal/mol |
| EEKRQVKQVAKEKLLEQSPNSKVQVRRVQKQGNTIRVELELRTNGKKENYTVEVERQGNEWTVKRITRT [T60E] | 4.16 kcal/mol |
| EEKRQVKQVAKEKLLEQSPNSKVQVRRVQKQGNTIRVELELRTNGKKENYTVEVERQGNHWTVKRITRT [T60H] | 4.02 kcal/mol |
